In patent US7893027B2, “Treatment of ocular wounds and ulcers” (The Board of Regents of the University of Oklahoma, priority 2002, dated 2011):

Experiments:
[1] = tested on: αv β 3 (CD51/CD61); assay: Flow cytometry of integrin expression on HCEC; format: cell-based, human
Procedure: (§1) Flow cytometry was used to assess the upregulation of PECAM-1 (CD31), and the integrin molecules β1 (CD29), β2 (CD18), β3 (CD61), β4 (CD104), α1 (CD49a), α2 (CD49b), α3 (CD49c), α4 (CD 49d), and αv (CD51). Human corneal epithelial cells were cultured as above and treated with CAP37 (0-2000 ng/ml) for 0-72 hr. A corresponding culture was left untreated at each time point. Following treatment with CAP37, cells were detached with 0.25% trypsin in 1 mM EDTA (pH 7.4, FISHER SCIENTIFIC, Pittsburgh, Pa.), washed twice in PBS and fixed with 0.125% paraformaldehyde (J.T. BAKER, Phillipsburg, N.J.) overnight at 4° C. The cells were washed in PBS and then incubated in 0.5% normal goat serum and 0.5% bovine serum albumin (BSA) in PBS for 30 min to block non-specific binding sites. Cells were incubated in the primary antibody (at concentrations described below) at 4° C. for 1 hr followed by the secondary antibody (FITC-goat anti-mouse IgG, PHARMINGEN, San Diego, Calif.) at 0.5 μg/10^6 cells and incubated at 4° C. for 30 min. The isotype control for these studies was FITC-labeled mouse isotype IgG1 (PHARMINGEN). The cells were analyzed by flow cytometry (FACS Calibur, BECTON DICKINSON, San Jose, Calif.). At least ten thousand cells were analyzed for each sample.
(§2) The primary antibodies and the concentrations used in the flow cytometry experiments are as follows: mouse anti-human PECAM-1 (CD31) monoclonal antibody clone HEC7 (0.5 μg/10^6 cells, ENDOGEN, Woburn, Mass.), mouse anti-human very late antigen 1α (VLA-1α, or CD49a) monoclonal antibody clone SR84 (0.5 μg/10^6 cells, PHARMINGEN), mouse anti-human VLA-α2 (CD49b) monoclonal antibody clone AK-7 (0.125 μg/10^6 cells, PHARMINGEN), mouse anti-human α3 (CD49c) monoclonal antibody clone C3II.1 (0.125 μg/10^6 cells, PHARMINGEN), mouse anti-human VLA-4 (α4) monoclonal antibody clone 2B4 (1 μg/10^6 cells, R & D systems, Minneapolis, Minn.), mouse anti human α5 (CD49e) monoclonal antibody clone VC5 (0.125 μg/10^6 cells, PHARMINGEN), mouse anti-human β1 (CD29) monoclonal antibody MAR4 (2 μg/10^6 cells, PHARMINGEN), mouse anti human β2 integrin (CD18) monoclonal antibody clone 6.7 (0.5 μg/10^6 cells, PHARMINGEN), mouse anti human αvβ3 (CD51/CD61) monoclonal antibody clone 23C6 (0.5 μg/10^6 cells, PHARMINGEN), and mouse anti human integrin β4 (CD104) monoclonal antibody clone 450-11A (1.0 μg/10^6 cells, PHARMINGEN). A purified mouse IgG1 κ monoclonal immunoglobulin isotype standard (clone MOPC-31C) was used as the isotype matched control in the flow cytometry experiments.

[2] = tested on: α1 (CD49a; VLA-α1); assay: Flow cytometry of integrin expression on HCEC; format: cell-based, human
Procedure: as §1, §2

[3] = tested on: α3 (CD49c); assay: Flow cytometry of integrin expression on HCEC; format: cell-based, human
Procedure: as §1, §2

[4] = tested on: α4 (CD49d); assay: Flow cytometry of integrin expression on HCEC; format: cell-based, human
Procedure: as §1, §2

[5] = tested on: α2 (CD49b; VLA-α2); assay: Flow cytometry of integrin expression on HCEC; format: cell-based, human
Procedure: as §1, §2

[6] = tested on: β 4 (CD104); assay: Flow cytometry of integrin expression on HCEC; format: cell-based, human
Procedure: as §1, §2

[7] = tested on: β 1 (CD29); assay: Flow cytometry of integrin expression on HCEC; format: cell-based, human
Procedure: as §1, §2

[8] = tested on: β 2 (CD18); assay: Flow cytometry of integrin expression on HCEC; format: cell-based, human
Procedure: as §1, §2

[9] = tested on: human corneal epithelial cells (HCEC); assay: Modified Boyden chamber chemotaxis / checkerboard assay; format: cell-based; details: for Number of cells migrated: 4 hr
Procedure: Human corneal epithelial cells were cultured in basic medium overnight, detached using trypsin-EDTA as described above and resuspended at a final concentration of 8×10^5 cells/ml. Chemotaxis assays were performed using the modified Boyden chamber assay described previously (13). Briefly, 200 (μl of cell suspension was added to the upper chamber and chemoattractants including recombinant CAP37 (10-2000 ng/ml) and the positive control recombinant human Platelet Derived Growth Factor-BB (PDGF-BB, 10 ng/ml, Collaborative Biomedical Products, Bedford Mass.) in 0.1% BSA (endotoxin-low-Sigma, St. Louis) in Geys' Buffer (GIBCO) were added to the lower chamber. The chambers were separated by an 8.0 μm pore membrane (13 mm polyvinylpyrrolidone-free, Whatman, Clifton, N.J.). Membranes were pre-coated with 50 μg/ml collagen type I rat tail (Collaborative Biomedical Products) in 0.02N acetic acid at room temperature for 1 hr and then air dried. Membranes were re-hydrated in basic cell culture medium immediately prior to commencement of each experiment. The negative control in these experiments was 0.1% BSA in Geys' buffer. The chambers were incubated in a humidified atmosphere (37° C., 5% CO2) for 4 hr, the filters were removed, stained with DIFF-QUICK (Dade Behring, Düdingen, Switzerland) and mounted with Permount (FISHER SCIENTIFIC, Pittsburgh, Pa.). The filters were viewed under oil immersion (×400 magnification, BH-2, Olympus, Lake Success, N.Y.) and the total numbers of cells migrated through to the underside of the filter were counted in five different fields on each slide. Triplicates were set up for each experimental point.
To assess whether CAP37 had chemokinetic properties, various concentrations of CAP37 (0, 10, 100 and 1000 ng/ml) were added to the upper chamber as well as to the lower chamber (0, 10, 100, 500, 1000 ng/ml) and a checkerboard assay performed according to the methodology of Zigmond and Hirsch (46).

B1: CAP37: Cationic Antimicrobial Protein of Mr 37 kDa; recombinant protein from human 293 cells, identical to native PMN-derived CAP37 (SEQ ID NO:1) (protein, listed as Homo sapiens)
chain: IVGGRKARPRQFPFLASIQNQGRHFCGGALIHARFVMTAASCFQSQNPGVSTVVLGAYDLRRRERQSRQTFSISSMSENGYDPQQNLNDLMLLQLDREANLTSSVTILPLPLQNATVEAGTRCQVAGWGSQRSGGRLSRFPRFVNVTVTPEDQCRPNNVCTGVLTRRGGICNGDGGTPLVCEGLAHGVASFSLGPCGRGPDFFTRVALFRDWIDGVLNNPGP
Effect of CAP37 on integrin αv β 3 (CD51/CD61) [1]: Low constitutive expression - no upregulation
Effect of CAP37 on integrin α1 (CD49a; VLA-α1) [2]: Constitutive expression - no upregulation
CD49c protein levels ([3]; 48 and 72 hr): returned back to constitutive levels
Level of CD49c protein expression ([3]; 4 hr to 24 hr): sustained through 24 hr
Effect of CAP37 on integrin α3 (CD49c) ([3]; HCEC, flow cytometry): High constitutive expression - significant
Time of initial upregulation of CD49c (α3) ([3]; HCEC, flow cytometry): 4 h
Effect of CAP37 on integrin α4 (CD49d) [4]: Low constitutive expression - no upregulation
Effect of CAP37 on integrin α2 (CD49b; VLA-α2) [5]: Constitutive expression - no upregulation
Effect of CAP37 on integrin β 4 (CD104) [6]: Constitutive expression - no upregulation
Upregulation of CD29 (β1) ([7]; 6 hr): clearly significant
Upregulation of CD29 (β1) ([7]; 72 hr): still significantly elevated above background constitutive levels
Effect of CAP37 on integrin β 1 (CD29) ([7]; HCEC, flow cytometry): Constitutive expression - significant upregulation
Effect of CAP37 on integrin β 2 (CD18) [8]: No constitutive expression - no upregulation
Chemotactic activity ([9]; 2000 ng/ml): reduced but still measurably active
Concentration range of maximal chemotactic activity ([9]; Boyden chamber): 500 to 1000 ng/mL
Number of cells migrated ([9]; CAP37 above the filter 0 ng/ml, below the filter 10 ng/ml): 28.56 ± 7.64
Number of cells migrated ([9]; CAP37 above the filter 0 ng/ml, below the filter 100 ng/ml): 39.82 ± 6.20
Number of cells migrated ([9]; CAP37 above the filter 0 ng/ml, below the filter 500 ng/ml): 68.89 ± 7.70
Number of cells migrated ([9]; CAP37 above the filter 0 ng/ml, below the filter 1000 ng/ml): 67.34 ± 8.42
Number of cells migrated ([9]; CAP37 above the filter 10 ng/ml, below the filter 10 ng/ml): 27.63 ± 3.03
Number of cells migrated ([9]; CAP37 above the filter 10 ng/ml, below the filter 100 ng/ml): 39.80 ± 6.93
Number of cells migrated ([9]; CAP37 above the filter 10 ng/ml, below the filter 500 ng/ml): 52.40 ± 15.76
Number of cells migrated ([9]; CAP37 above the filter 10 ng/ml, below the filter 1000 ng/ml): 62.73 ± 9.66
Number of cells migrated ([9]; CAP37 above the filter 100 ng/ml, below the filter 100 ng/ml): 36.63 ± 6.48
Number of cells migrated ([9]; CAP37 above the filter 100 ng/ml, below the filter 1000 ng/ml): 48.57 ± 15.58
Number of cells migrated ([9]; CAP37 above the filter 1000 ng/ml, below the filter 100 ng/ml): 28.08 ± 2.76
Number of cells migrated ([9]; CAP37 above the filter 1000 ng/ml, below the filter 1000 ng/ml): 38.13 ± 6.07
Levels of migration relative to positive control ([9]; PDGF-BB 10 ng/ml as positive control): comparable to those obtained with the positive control, PDGF
